Columns and labels:
[1] = biological target: Helios (Mus musculus) (UniProt P81183); assay: cell_activity; conditions: NIH3T3 reporter; requires Ikaros sites
[2] = biological target: Ikaros (UniProt Q03267); assay: cell_activity; conditions: NIH3T3 reporter
Chain of Ikaros (Q03267 other isoform, or with tags, fused parts or gaps): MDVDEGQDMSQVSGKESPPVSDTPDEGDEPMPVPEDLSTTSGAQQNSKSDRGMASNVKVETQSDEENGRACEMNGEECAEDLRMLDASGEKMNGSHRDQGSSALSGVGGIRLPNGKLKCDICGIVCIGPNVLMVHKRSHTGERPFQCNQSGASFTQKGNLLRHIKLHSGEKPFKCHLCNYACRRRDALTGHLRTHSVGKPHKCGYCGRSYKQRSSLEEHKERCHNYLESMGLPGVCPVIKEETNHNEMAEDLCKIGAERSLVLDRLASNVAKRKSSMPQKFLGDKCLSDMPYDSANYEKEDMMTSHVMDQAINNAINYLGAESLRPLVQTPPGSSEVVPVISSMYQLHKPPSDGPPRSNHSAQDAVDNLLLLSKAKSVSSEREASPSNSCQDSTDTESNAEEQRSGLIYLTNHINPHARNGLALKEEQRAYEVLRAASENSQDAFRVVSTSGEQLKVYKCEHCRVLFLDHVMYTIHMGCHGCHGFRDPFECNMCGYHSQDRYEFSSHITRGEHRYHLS

Chain of Helios (Mus musculus) (P81183 other isoform, or with tags, fused parts or gaps): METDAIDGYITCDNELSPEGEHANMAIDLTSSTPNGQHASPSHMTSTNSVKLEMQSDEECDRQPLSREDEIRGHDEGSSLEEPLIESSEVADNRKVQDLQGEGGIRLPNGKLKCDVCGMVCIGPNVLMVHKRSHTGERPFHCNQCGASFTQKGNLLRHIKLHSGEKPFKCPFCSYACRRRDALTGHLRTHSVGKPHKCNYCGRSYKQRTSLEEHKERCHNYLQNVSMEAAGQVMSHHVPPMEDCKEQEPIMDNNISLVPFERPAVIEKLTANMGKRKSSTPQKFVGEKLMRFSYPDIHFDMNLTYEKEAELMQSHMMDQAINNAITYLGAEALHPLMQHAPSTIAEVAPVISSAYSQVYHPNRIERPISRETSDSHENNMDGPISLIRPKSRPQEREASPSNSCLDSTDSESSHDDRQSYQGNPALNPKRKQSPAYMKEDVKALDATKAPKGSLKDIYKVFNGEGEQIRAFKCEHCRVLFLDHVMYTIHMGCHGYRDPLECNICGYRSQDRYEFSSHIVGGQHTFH

4x IkBS2 reporter
activity (fold activation) [1]: 5
activity (fold activation) [2]: 7.8

Reference: patent publication US20050130265
